Measurements taken from the domain aggregation screens of Martell et al. (2025).

Experiment: soluble fraction after stress (log2 fold change); higher = more stays soluble; pooled small domains, quantitative proteomics
Details: stress: 75 degC
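Further: 20 min heating vs room temperature control held 20 min.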

Row | Sequence | soluble fraction (log2)
1 | HMSYLDTLPGRRVAAQGAITGDAGTLAVDGDTWSARVEPGAPDVAPGDEVTVLRIDGATLVVRPLP | 0.0276
2 | HMKKSRLHSVLEEIPGIGEKRRKILIKHFGTVEAIKKSSLEELARIKGMNRRAAQNVLEYLK | -0.775
3 | HMSETAVTYNEDFEADGSLRPNEQAVLDAFTGVLKLTVSELEKKTGLRNVVPVVASLMAKGAVEVSEELK | -0.0304
4 | HMDALIWYVSRGQQKFGPFNYFGVLKALQDKSVFEFDYVWKEGTENWVRLAEHELFSQEKVRELLA | -0.554
5 | HMNLDMVINKIGIVTEDIKQDKIGEVKVLGKRWSAYSNTELKKDEKVKILSIDGVKLKVEKI | -0.135
6 | HMLSLKAQVYEIIRQKILQQEYALGEKINIDTVADELKISNSPIREALMMLSQDGLIEMVPNNGARVI | -1.88
7 | HMRLLAESIARGLDPEGSGGLWAKEAGAEALKLMETLAAEAPHGGSFTAAAYRDLFESLVHQGEVREA | -0.00417
8 | HMNDTLGVNIKRLRKEKGMTQDEVAKAVYTTRYNILRYESGKMTPSSEVIERLEKALGVPTGSLAQ | -0.348
9 | HMSSKFKIVGEILSIKKSDILYIIEILSNNEVVKATAVEDEIKDLKIGDKILLSSKAFNPIVNK | -2.29
10 | HMQQIEIEEPITVKNLSAVAGLKASEIIAKLMKLGVMSTINQVMERQHAEEIAGEYGFELVVK | -0.132
11 | HMPELSPEERAIIETLQKNNDLQVNIIAIKTGMDMGSLSAVLFDLEMKGLVKLLAGGMYHLI | -0.66
12 | HMDEMPVEFVKISIKAGHPWENRKIKDLASLPDLLLVLILRGEERIIPNGNTVVLAGDKIVLSALSPE | -2.74
13 | HMDVLKVFSHNVRRYRTQLGLSQETVAFRTGLHRTYISAVERGKRSISLDNIQKIADALEVETYLLFI | -1.76
14 | HMFNTWLGEIRSNTGANVRSGPDASAAIVDARPNETVVRVIGQSGNWLQIGDKQFVAQSLVAP | -0.0837
15 | HMNSILFAITKEGGVVYGGKPVGVNGVRPLVRRLLQSEEMPVILQVDEKADAGLVIRVIDESKLGGASKV | -0.372
16 | HMESGLPLPRFVSLGADEVNLRTGPGLRYPVAWVFVRKALPVEIVAEFEQWRRVRDFEGAEGWVHKAML | -0.163

Row | Sequence | soluble fraction (log2)
17 | HMTSAHEKAFDLFDGGKLSEKALLIAVGAERSGFELAGDLRLRTLTAFEDGRLSEDAMIKLL | -0.299
18 | HMKVLFLESIEGSASMGEIKDVANGYARNFLFPNGFAVPATPKNLKNVEELQAKELEIQTERDNWAA | -0.016
19 | HMTTTPTSQMVTELRSRGWTLRALAQRLGVGHASINRWANGVTPDRDLVAALRALVASGEVP | -0.833
20 | HMVSLEEIINDLTSRIQTAVKMRFSDFVQNRKERVGVIVSFLGMLELVKQGIIDIKQEGHFADIEMETA | -0.347
21 | HMNNFTPEHLEKDIEGSLFFRRLKETAREEPGSLTVAQKDFIQMWHDQADGVYTLRQVFVQTAFDHVRSL | 0.315
22 | HMINRMGRLVEALSHMIANTKPGARLPSEPELARQLGVSRATLREAMRTFEAQGMIHRRQGAGTFVVH | -1.27
23 | HMEIVSTEEKIKRAAEQVFLLRGLEGARMQEIADVAGINKAMLHYYFRNKETLFDVILSEKL | -2.11
24 | HMRKLHFVMSEIYEDHPWIGSKLQDVFLPKDIRVVLVERDSKQFMPNGQTLFELGDRLTLSALHYDPA | -2.8
25 | HMAHYPGKVNNELVEFIRSEQRKTPHMTLTGLNRKLQRTYDLTLSESTVRKLVEAETILPLAREPD | -0.25
26 | HMGPSLDAVREQIRDLIAEEDKSAPYSDLSLVAELEKRGIHISRRTIAKYRGEMGIPNSDQRRYF | -0.0939
27 | HMVSPFQQQIADKVHNEIIAAKFNYDNATNENERLLAQLQAKKARELANQYGLDMSSYGADTTAERS | 0.61
28 | HMENAEALLKKLSGVLSDYEYKMLMLYADGKTPRRIAQETGQSAKSVSNALFRARTKLKELYEDQ | -0.66
29 | HMLTDMSKIRKVLKLYGKGNSKLFISTYLSLSRNTVKKYISLFEVSGKTIEEILAKSDSELELLFSG | -0.981
30 | HMSGMNSDHRVNGNIHTFLIQHDLGTKWSVFTEQLLKQVFRSFLPDKELNFQTTDSTVILKVSLGSDFNEH | -0.0399
31 | HMYSKVSFTVSVGMTSERVSASLKALGIIDDSAKFNRYLVSNGYSTRIKVGTVELQAGQSYAEIASKLV | -3.88
